Patent publication WO2019016784A1 (dated 2019)

How the values were obtained:
[1] = target: T1, human recombinant nucleolin (human, UniProt P19338 1-710, limits assumed); experiment: ELISA, 100 ng human nucleolin coated, 100 pmol VHH, anti-HA-peroxidase detection
T1 construct: also called human nucleolin

human recombinant TNF-a = target: T2, human recombinant TNF-a (human, UniProt P01375 77-233); experiment: ELISA, 200 ng human TNF-a coated, 100 pmol VHH, anti-HA-peroxidase detection
T2 construct: Coated at 200 ng per well in the ELISA; also called human TNF-a
T2 sequence (P01375 77-233 limits assumed): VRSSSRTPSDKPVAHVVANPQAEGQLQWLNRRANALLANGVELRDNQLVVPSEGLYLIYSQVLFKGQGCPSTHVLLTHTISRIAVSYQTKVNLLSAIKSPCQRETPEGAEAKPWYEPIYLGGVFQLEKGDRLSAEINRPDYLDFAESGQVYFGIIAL

T1 sequence (P19338 whole entry, form in doubt): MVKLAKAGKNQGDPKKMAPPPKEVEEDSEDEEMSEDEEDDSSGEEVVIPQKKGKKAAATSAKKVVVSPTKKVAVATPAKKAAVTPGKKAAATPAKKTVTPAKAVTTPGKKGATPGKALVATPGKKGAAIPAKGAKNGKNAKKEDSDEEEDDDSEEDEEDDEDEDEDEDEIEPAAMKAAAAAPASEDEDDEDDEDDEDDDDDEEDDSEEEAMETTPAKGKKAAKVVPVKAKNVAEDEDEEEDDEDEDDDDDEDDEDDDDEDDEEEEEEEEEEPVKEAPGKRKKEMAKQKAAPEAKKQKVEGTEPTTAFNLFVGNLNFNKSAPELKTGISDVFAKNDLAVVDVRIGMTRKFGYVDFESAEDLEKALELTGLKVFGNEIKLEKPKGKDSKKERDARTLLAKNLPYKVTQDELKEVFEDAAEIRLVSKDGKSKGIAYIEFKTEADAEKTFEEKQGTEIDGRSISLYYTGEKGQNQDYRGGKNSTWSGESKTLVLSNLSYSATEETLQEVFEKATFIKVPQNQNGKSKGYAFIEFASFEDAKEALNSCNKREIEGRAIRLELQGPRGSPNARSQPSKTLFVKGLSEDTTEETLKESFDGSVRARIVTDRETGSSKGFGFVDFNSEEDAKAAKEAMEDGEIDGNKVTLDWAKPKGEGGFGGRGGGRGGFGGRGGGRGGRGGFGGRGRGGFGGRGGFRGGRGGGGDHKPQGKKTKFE

Binder | fold increased nucleolin binding relative to the parental VHH [1] | percent lower binding to TNF-a than the parental VHH (human recombinant TNF-a)
aNCL-CDR1 VHH (VHH, The entry is expected to hold leader peptide, His tag and HA tag like the others; also called aNCL-CDRl; a-NCL-CDRl VHH) VHH: QVQLQESGGGLVQPGGSLRLSCAASPQRRSARLSAWFRQAPGKEREFVARIYWSSGNTYYADSVKGRFAISRDIAKNTVDLTMNNLEPEDTAVYYCAARDGIPTSRSVESYNYWGQGTQVTVSS | 2 fold | ~40%
aNCL-CDR3 VHH (VHH, The entry holds leader peptide, His tag and HA tag; also called CDR3-grafted VHH; anti-nucleolin VHH) VHH: QVQLQESGGGLVQPGGSLRLSCAASGRTFSDHSGYTYTIGWFRQAPGKEREFVARIYWSSGNTYYADSVKGRFAISRDIAKNTVDLTMNNLEPEDTAVYYCAAPQRRSARLSAWGQGTQVTVSS | 3 fold | ~40%

Next, values leading:

fold increased nucleolin binding relative to the parental VHH [1] | percent lower binding to TNF-a than the parental VHH (human recombinant TNF-a) | Binder
3 fold | ~40% | aNCL-CDR3-L VHH (VHH, The entry holds leader peptide, His tag and HA tag; also called CDR3-grafted VHH with SGGGS linkers) VHH: QVQLQESGGGLVQPGGSLRLSCAASGRTFSDHSGYTYTIGWFRQAPGKEREFVARIYWSSGNTYYADSVKGRFAISRDIAKNTVDLTMNNLEPEDTAVYYCAASGGGSPQRRSARLSASGGGSWGQGTQVTVSS
2 fold | ~40% | aNCL-CDR1-L VHH (VHH, The entry holds leader peptide, His tag and HA tag; also called aNCL-CDRl-L; CDR1-grafted VHH with SGGGS linkers) VHH: QVQLQESGGGLVQPGGSLRLSCAASSGGGSPQRRSARLSASGGGSWFRQAPGKEREFVARIYWSSGNTYYADSVKGRFAISRDIAKNTVDLTMNNLEPEDTAVYYCAARDGIPTSRSVESYNYWGQGTQVTVSS
